# Measurements from publication PMC5700813, “A recombinant BBSome core complex and how it interacts with ciliary cargo” (eLife, 2017).
# Like-named read-outs stand apart in the source and are kept apart here. Ends that are not written are not given here. fluorescein = fluorescein, N-terminal fluorescent label
# T1: SSTR3 CT2 (human (from the printed UniProt …, fluorescein on the N-terminus))
# T1 construct: SSTR3, three residues of the 7th transmembrane region and 21 of the C-terminus; limits worked out from the printed RRVR 333-336; source: synthetic peptide, bought: Proteogenix
# T1 peptide: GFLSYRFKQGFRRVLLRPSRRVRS
# B1: BBS9 C-terminal part (residues 363–887) (domain or fragment, human, UniProt Q3SYG4-1 363-887, looked up)
# chain: PSLFQAPNVQSRELNYDELDVEMKELQKIIKDVNKSQGVWPMTEREDDLNVSVVVSPNFDSVSQATDVEVGTDLVPSVTVKVTLQNRVILQKAKLSVYVQPPLELTCDQFTFEFMTPDLTRTVSFSVYLKRSYTPSELEGNAVVSYSRPTDRNPDGIPRVIQCKFRLPLKLICLPGQPSKTASHKITIDTNKSPVSLLSLFPGFASQSDDDQVNVMGFHFLGGARITVLASKTSQRYRIQSEQFEDLWLITNELILRLQEYFEKQGVKDFACSFSGSIPLQEYFELIDHHFELRINGEKLEELLSERAVQFRAIQRRLLARFKDKTPAPLQHLDTLLDGTYKQVIALADAVEENQGNLFQSFTRLKSATHLVILLIALWQKLSADQVAILEAAFLPLQEDTQELGWEETVDAAISHLLKTCLSKSSKEQALNLNSQLNIPKDTSQLKKHITLLCDRLSKGGRLCLSTDAAAPQTMVMPGGCTTIPESDLEERSVEQDSTELFTNHRHLTAETPRPEVSPLQGVSE
# notes: BBS9, human, residues 363-887 (GAE, platform and alpha-helical domains); also called C-terminal domain of BBS9; C-terminal appendage part; source: Hi5 insect cells (baculovirus); alone, purified, or co-expressed with BBS1
# B2: BBS9 (full length) (natural protein, human, UniProt Q3SYG4-1 1-887, looked up)
# chain: MSLFKARDWWSTILGDKEEFDQGCLCLANVDNSGNGQDKIIVGSFMGYLRIFSPHPAKTGDGAQAEDLLLEVDLRDPVLQVEVGKFVSGTEMLHLAVLHSRKLCVYSVSGTLGNVEHGNQCQMKLMYEHNLQRTACNMTYGSFGGVKGRDLICIQSMDGMLMVFEQESYAFGRFLPGFLLPGPLAYSSRTDSFLTVSSCQQVESYKYQVLAFATDADKRQETEQQKLGSGKRLVVDWTLNIGEQALDICIVSFNQSASSVFVLGERNFFCLKDNGQIRFMKKLDWSPSCFLPYCSVSEGTINTLIGNHNNMLHIYQDVTLKWATQLPHIPVAVRVGCLHDLKGVIVTLSDDGHLQCSYLGTDPSLFQAPNVQSRELNYDELDVEMKELQKIIKDVNKSQGVWPMTEREDDLNVSVVVSPNFDSVSQATDVEVGTDLVPSVTVKVTLQNRVILQKAKLSVYVQPPLELTCDQFTFEFMTPDLTRTVSFSVYLKRSYTPSELEGNAVVSYSRPTDRNPDGIPRVIQCKFRLPLKLICLPGQPSKTASHKITIDTNKSPVSLLSLFPGFASQSDDDQVNVMGFHFLGGARITVLASKTSQRYRIQSEQFEDLWLITNELILRLQEYFEKQGVKDFACSFSGSIPLQEYFELIDHHFELRINGEKLEELLSERAVQFRAIQRRLLARFKDKTPAPLQHLDTLLDGTYKQVIALADAVEENQGNLFQSFTRLKSATHLVILLIALWQKLSADQVAILEAAFLPLQEDTQELGWEETVDAAISHLLKTCLSKSSKEQALNLNSQLNIPKDTSQLKKHITLLCDRLSKGGRLCLSTDAAAPQTMVMPGGCTTIPESDLEERSVEQDSTELFTNHRHLTAETPRPEVSPLQGVSE
# notes: BBS9, human, as NM_198428.2 (887 residues by the printed range 363-887); source: Hi5 insect cells (baculovirus); alone, purified, or co-expressed with other subunits
# B3: BBS1 (aa1-430) (domain or fragment, human, UniProt Q8NFJ9-1 1-430, looked up)
# chain: MAAASSSDSDACGAESNEANSKWLDAHYDPMANIHTFSACLALADLHGDGEYKLVVGDLGPGGQQPRLKVLKGPLVMTESPLPALPAAAATFLMEQHEPRTPALALASGPCVYVYKNLRPYFKFSLPQLPPNPLEQDLWNQAKEDRIDPLTLKEMLESIRETAEEPLSIQSLRFLQLELSEMEAFVNQHKSNSIKRQTVITTMTTLKKNLADEDAVSCLVLGTENKELLVLDPEAFTILAKMSLPSVPVFLEVSGQFDVEFRLAAACRNGNIYILRRDSKHPKYCIELSAQPVGLIRVHKVLVVGSTQDSLHGFTHKGKKLWTVQMPAAILTMNLLEQHSRGLQAVMAGLANGEVRIYRDKALLNVIHTPDAVTSLCFGRYGREDNTLIMTTRGGGLIIKILKRTAVFVEGGSEVGPPPAQAMKLNVPRK
# notes: BBS1, human, residues 1-430; also called BBS1 ß-propeller domain; truncated BBS1 subunit; source: Hi5 insect cells (baculovirus), purified
# B4: SSTR3 3ICL (peptide)
# peptide: fluorescein-VKVRSAGRRVWAPSCQRRRRSERRVTRM
# notes: SSTR3, third intracellular loop; source: synthetic peptide, bought: Proteogenix
# Tests used:
# [1] = target: NMU 3ICL1 (human (from the printed UniProt accession)); assay: fluorescence polarisation; fluorescein-labelled peptide or Smo fragment (0.1–1 µM) titrated with core BBSome or BBS1 (aa1-430); quadratic binding fit
# NMU 3ICL1 (human, sequence (peptide, as listed by the source): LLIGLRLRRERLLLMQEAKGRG
# [2] = target: SSTR3 CT8 (human (from the printed UniProt accession)); assay: as above
# [3] = target: fluoresceine-labeled Smo (R546-L665) (human (from the printed UniProt accession)) (UniProt Q99835); assay: as above
# fluoresceine-labeled Smo (R546-L665) (human, sequence (Q99835 546-665): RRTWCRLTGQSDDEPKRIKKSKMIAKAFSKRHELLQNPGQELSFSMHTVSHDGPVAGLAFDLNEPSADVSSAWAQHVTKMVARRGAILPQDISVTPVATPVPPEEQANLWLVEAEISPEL
# [4] = target: SSTR3 CT5 (human (from the printed UniProt accession)); assay: as above
# [5] = target: Smo CT6 (human (from the printed UniProt accession)); assay: as above
# [6] = target: Smo CT5 (human (from the printed UniProt accession)); assay: as above
# [7] = target: SSTR3 CT3 (human (from the printed UniProt accession)); assay: as above
# [8] = target: T2, 5HT6 CT (human (from the printed UniProt accession)); assay: as above
# T2 sequence (P50406 325-344): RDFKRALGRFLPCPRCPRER
# [9] = target: SSTR3 3ICL (human (from the printed UniProt accession)); assay: as above
# [10] = target: SSTR3 CT7 (human (from the printed UniProt accession)); assay: as above
# [11] = target: SSTR3 CT1 (human (from the printed UniProt accession)); assay: as above
# [12] = target: Smo CT4 (human (from the printed UniProt accession)); assay: as above
# [13] = target: Smo CT1 (human (from the printed UniProt accession)); assay: as above
# [14] = target: Smo CT7 (human (from the printed UniProt accession)); assay: as above
# [15] = target: GPR161 CT2 (human (from the printed UniProt accession)); assay: as above
# GPR161 CT2 (human, sequence (Q8N6U8 489-510): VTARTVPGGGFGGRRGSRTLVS
# [16] = target: NMU 3ICL2 (human (from the printed UniProt accession)); assay: as above
# NMU 3ICL2 (human, sequence (Q9HB89 271-294): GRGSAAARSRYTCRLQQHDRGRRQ
# [17] = target: SSTR3 CT6 (human (from the printed UniProt accession)); assay: as above
# [18] = target: GPR161 3ICL (human (from the printed UniProt accession)); assay: as above
# [19] = target: MCH 3ICL (human (from the printed UniProt accession)); assay: as above
# MCH 3ICL (human, sequence (peptide, as listed by the source): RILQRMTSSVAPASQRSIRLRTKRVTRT
# [20] = target: SSTR3 CT4 (human (from the printed UniProt accession)); assay: as above
# [21] = target: GPR161 CT1 (human (from the printed UniProt accession)); assay: as above
# GPR161 CT1 (human, sequence (Q8N6U8 328-354): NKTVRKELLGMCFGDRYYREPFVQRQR
# [22] = target: Smo CT8 (human (from the printed UniProt accession)); assay: as above
# [23] = target: SSTR3 CT9 (human (from the printed UniProt accession)); assay: as above
# [24] = target: SSTR3 CT2 (human (from the printed UniProt accession)); assay: as above
# [25] = target: Smo CT3 (human (from the printed UniProt accession)); assay: as above
# Smo CT3 (human, sequence (Q99835 541-577): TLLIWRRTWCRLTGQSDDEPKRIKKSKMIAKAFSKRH
# [26] = target: Smo CT2 (human (from the printed UniProt accession)); assay: as above
# [27] = target: T2, 5HT6 CT (human); assay: as above; remark: listed apart in the source
# [28] = target: the molecule itself; assay: SEC; samples purified by affinity chromatography and gel filtration; 2.5–10 µg of the peak fraction on a Superdex 200 5/20 column; elution volume against standard proteins
# [29] = target: the molecule itself; assay: SEC; full length BBS9 at high concentrations; at lower concentrations the single peak shifts to lower molecular weight (fast equilibrium between monomer and dimer)
# [30] = target: T1, SSTR3 CT2; assay: fluorescence polarisation; fluorescein-labelled peptide or Smo fragment (0.1–1 µM) titrated with core BBSome or BBS1 (aa1-430); quadratic binding fit; settings: both partners purified
# [31] = target: B3; assay: as above; settings: both partners purified
molecule,measurement,setting,value
"6mer BBSome core complex (BBS1, 4, 5, 8, 9 and 18) (from UniProt Q8NFJ9-1 1-593; Q96RK4-1 1-519; Q8N3I7-1 1-341; Q8TAM2 1-541; Q3SYG4-1 1-887; A8MTZ0-1 1-92)",Kd,[1],18.1 µM
same,Kd,[2],11 µM
same,Kd,[3],36.1 µM
same,Kd,[4],1.5 µM
same,Kd,[5],12.5 µM
same,Kd,[6],9.7 µM
same,Kd,[7],1.1 µM
same,Kd,[8],44.2 µM
same,Kd,[9],12.8 µM
same,Kd,[10],1 µM
same,Kd,[11],22.1 µM
same,Kd,[12],1.1 µM
same,Kd,[13],1.8 µM
same,Kd,[14],14.3 µM
same,Kd,[15],> 100 µM
same,Kd,[16],> 100 µM
same,Kd,[17],4.5 µM
same,Kd,[18],6.3 µM
same,Kd,[19],68.8 µM
same,Kd,[20],0.4 µM
same,Kd,[21],67.4 µM
same,Kd,[22],6.8 µM
same,Kd,[23],4.7 µM
same,Kd,[24],0.11 µM
same,Kd,[25],1.4 µM
same,Kd,[26],> 100 µM
same,Kd,[27],> 50 µM
B1,stoichiometry N,[28],2
B2,stoichiometry N,[29],2
B3,fold lower affinity than to the core BBSome,[30],~100 fold
B4,binding result,[31],binds
